According to the domain aggregation screens of Martell et al. (2025):

Assay: soluble fraction after stress (log2 fold change); higher = more stays soluble; pooled small domains, quantitative proteomics
Settings: stress: 50 degC
In short: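 Each library was heated to 50°C as a stress step. The libraries, made up of small protein domains, were pooled and analysed at high throughput by quantitative proteomics. The reported value is the base-two logarithm of the fold change in each protein's soluble amount after stress, taken as a measure of aggregation propensity. The higher the value, the more protein stays in solution.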

First: HMQISDSGELEKIVLQVIEENPKPAEQVRSGNEKAIGALVGGVMKATQGRADGGEVNRLLRQHLGL
Second: HMIAASPVGGIDRVLELLDARGQRVAWIEASGTEGGQRLRLGWIDAQGAERHGAWVPWSADDLLLYA
The “soluble fraction (log2)” value of the first is higher: 0.172 for the first, -0.387 for the second.

Compared with “HMRIASANAIYDELLNKRDDAKLAELKQEDINLYALYILQNGSADERAALENTQGIDVVLKEIINLQNG”, “HMYIDANTALLAKRIQAKNGFLPLSDKSTAEEIYAEFGISKKAFKKALGALYKERLVRIGDEGVVWV” is lower in “soluble fraction (log2)” value: -0.309 for the first, -1.79 for the second.

Going from “HMNNLTEEAINHLVLEVKNVLLTDALFLGKATDSQLMLRIKETIDQRNGQYNIGMNDRERIARRVFARLR” to “HMLTLSGPEHAVVRALWPEPELDFDVLIRKTGLPSAQLMTLAMQLEMKKIIRRLPGRRLALMDDIRR”, the “soluble fraction (log2)” value falls from -0.189 to -1.85.

Compared with “HMERYLLRDNIPNALHGERLDRVIAIMTGLSRSAVSALIKSNQVLRNGQIAQSISEKVVEGDELEVHLEP”, “HMFVEEGSLKKITFDTYEFNITDNLKSLRVTYQGLLPNLFREGQGVVIEGILLEQNYIQANTVF” is higher in “soluble fraction (log2)” value: -0.0223 for the first, 0.22 for the second.

Going from “HMTPQVTVPDVTGQSFASAKQVLESLGLTVKQQGSTGENDKVIGQNPTSGNADKGATITLTTQDS” to “HMDKGMQTMIDNLHKNTGKTLEEWIALVNRANFAKHGEVISFLKEKHGLTHGYANLVAHRLK”, the “soluble fraction (log2)” value falls from 0.343 to 0.113.

Compared with “HMAQQEMEIIPLRHRQVEQVMPTLRPLLEPGAALSGMNNQLILRASRKNREEIKQALAVIDT”, “HMIKYTIEELGELTGFTRRTIRYYVQEGLIDPPAGRGRGGFYYDSHVQQLLRIKSFQEKGIGITAMVSLM” is lower in “soluble fraction (log2)” value: 0.172 for the first, -2.51 for the second.

Going from “HMFHGEGVQANNIQAYIVLKMAAVNGAEDALDTADEVSEKMSREDLETATQVLGQIFRKYLMELQSA” to “HMPRKYFPFYFTFRETAQTMPPRLRAVFYEAIIEYGTTGKEPTLPKSIAGYWPLVKPTLDSAKAHYDAG”, the “soluble fraction (log2)” value rises from -1.2 to -0.831.

First: HMNMPDVTVEWVKEQQAKFGLTDSDLAKSVNIDNANLARIFNQRGLTKIHKALFYYFFRAYGLQ
Second: HMWKSEAGKKIIESLAQKYNKSNAQIILRWHIQMGYIVIPGARSENHIKENINIFDFKLTNEEINNILKLN
The “soluble fraction (log2)” value of the first is lower: -2.4 for the first, -0.345 for the second.

Going from “HMQILVEGVEANQRLDLFLRARLTEFSRSRIQGLVKNGNVLVNGNIARQAYLVQVGDKIELDVPEPVA” to “HMSGTESMIEGRGEARTAIDGEGKVFFQGEYWTAQSDQFIPQGAKVRIKKVEGLNLIVEEIK”, the “soluble fraction (log2)” value rises from -0.487 to 0.0805.

Compared with “HMNMANFARIRLILELHDRGMSQDEISRSRHMSRSTITTVLRTARKKGITYAGIRKLDDAALQKLFFPDR”, “HMAGSTAASKHALALLNTARHSIRDGNLTSAAAEIKQALATSQEQIVITEARSLMTAMEARATTRRATVLQ” is higher in “soluble fraction (log2)” value: -3.88 for the first, -0.168 for the second.

Going from “HMYPEDMMSLMRRALRLINHLESNRKDRHNSRQLELTESKIRRLARYYKGRGLIETEWAYKRDQLRLLV” to “HMNMDLGHSISKLRTDANLTQEKFAQILNVSRQTVQKWEYGEALPDIHNIIKIAKFFNISLDALVLRS”, the “soluble fraction (log2)” value rises from -0.398 to -0.159.

Compared with “HMDAGIVVPDTYNKPLAEAVASLEGEGFRTEKKEGYSDTVAKGNVMSQNPEAGTNAERGSTVTIVISQGPQ”, “HMINVVDEVIKHLETNIISGFWAPGQKIDSEATLSKQLNVSRASIHTAIQQLIATGVLESFQGKGTFVRS” is lower in “soluble fraction (log2)” value: 0.0495 for the first, -0.624 for the second.

Going from “HMSTKYSSNIISLVKGLMEEDQYKDLMGPPLKKEIIKKVESITDTFPYKFDKDDKEFIVKKVLISLRK” to “HMSADDSDDRKGIDAWLTQLLANGSVKATEVYSAADAAGYSKDQAKRAKRRLAIEAVREAMDGPWFWRLD”, the “soluble fraction (log2)” value rises from -1.29 to -0.616.

Going from “HMVLVLPGEMIHVQVIDEGKEMGQGVGYLDDGTMVVVENGLRHIGRAIDVQVTKVLQTNAGRMIFGQPIL” to “HMTISGSDLKAQREALNIPLERIAKETRIRLSILQDLEDEEYSELSSSAQTKGFLRLYADYLSSHKQRLG”, the “soluble fraction (log2)” value falls from -0.137 to -0.415.

First: HMLKTADAIASVLLTRIQAGEFSAGRLPAERALSEAFSTTRITLREALGKLEAQGMIYRELRRGWFIA
Second: HMERAFRILELFDLKQDELPITEIAERTGLPISTAHRLLSTLETLGYIAQNPDNGRYRLGLQTFVLGSR
The “soluble fraction (log2)” value of the first is lower: -1.76 for the first, -0.987 for the second.

Going from “HMTDSQLVEAENHVALRQAMAHLGPRERELIGLYYFEEQSQTQIAARFGVSQMQVSRWLTSAVGRIRGQMA” to “HMQEKLELIIPVSSIGKRADVAIQDLLSSYSRAKIQEWIKSGFILLESKKISPKDIFMGGERVFIDIQQDE”, the “soluble fraction (log2)” value falls from -0.00256 to -1.41.

Compared with “HMSDGIPDLRNLNFLSPQEGDYLNESDRVFGVTINGDGQAYPLRIVNAHEMVNDTLGGEPISLM”, “HMNSSLLGKRIKSLREDHDLTQKELSLMIGLTPKMISFYENNQRTPPLDILLKLAKIFEVSVDYLIGYA” is lower in “soluble fraction (log2)” value: 0.16 for the first, -0.551 for the second.

Going from “HMHEGNWTLPNPMPIGTTLTLPEHSRLYISNLAGQRVFETSATSVEIPLLPKGTYLLRLETMNGHTTRKIL” to “HMKISDMIETNLKFLRGKHSISQAELAESLGIPRTTLSAYERGFVEPNIELMLKMAKYFNVSLDDLIAYN”, the “soluble fraction (log2)” value falls from -0.0423 to -1.88.

For “HMKIVQDIAFSDFLNEVEKDNVLDVNIKGDLINGNLADGRKFKTYTPYDPNLIEKLSNKNVTINVEPYN”, the “soluble fraction (log2)” value was 0.198.
